Measurements published in US20220265806A1.

Target: E1′ (CHIKV E1 ectodomain construct) (Chikungunya virus)

Substance: chCHK-166^pMAZ (antibody)
- EC50: 2.2 nM
